{"source": "patent US10578620B2", "about": "“Methods for detecting molecules in a sample” (The Francis Crick Institute Limited, priority 2013, dated 2020)", "molecules": {"B1": {"name": "calf intestinal alkaline phosphatase (protein, UniProt P19111 20-506, looked up)", "Intestinal-type alkaline …": "LVPVEEEDPAFWNRQAAQALDVAKKLQPIQTAAKNVILFLGDGMGVPTVTATRILKGQMNGKLGPETPLAMDQFPYVALSKTYNVDRQVPDSAGTATAYLCGVKGNYRTIGVSAAARYNQCKTTRGNEVTSVMNRAKKAGKSVGVVTTTRVQHASPAGAYAHTVNRNWYSDADLPADAQMNGCQDIAAQLVNNMDIDVILGGGRKYMFPVGTPDPEYPDDASVNGVRKRKQNLVQAWQAKHQGAQYVWNRTALLQAADDSSVTHLMGLFEPADMKYNVQQDHTKDPTLQEMTEVALRVVSRNPRGFYLFVEGGRIDHGHHDDKAYMALTEAGMFDNAIAKANELTSELDTLILVTADHSHVFSFGGYTLRGTSIFGLAPSKALDSKSYTSILYGNGPGYALGGGSRPDVNDSTSEDPSYQQQAAVPQASETHGGEDVAVFARGPQAHLVHGVEEETFVAHIMAFAGCVEPYTDCNLPAPTTATSIPD", "notes": "phosphatase used as control to verify FRET signal is due to Akt phosphorylation"}}, "tested_on": "pT308 (Akt phosphorylation)", "test": "Two-site TSA-FRET for pT308 in FFPE human breast tumour, CIP specificity control", "protocol": "TSA-FRET assay for quantification of pT308 was performed on 4-μm sections of two identical FFPE-fixed breast cancer tissue samples.\nFollowing de-waxing and rehydration, sections were subjected to heat antigen retrieval by microwaving in TRIS-EDTA (pH 9.0) buffer, for 10 minutes at 800 W. Sections were then incubated in freshly prepared sodium borohydrate (1 mg/ml in PBS) buffer for 10 min at RT, followed by blocking with 1% BSA/PBS. Tissues sections were incubated with peroxidase suppressor (Thermo Scientific Pierce) for 15 min.\nFor the two-site TSAFRET assay, the first slide was incubated with mouse anti-panAkt (1:100), and the second slide with mouse anti-panAkt (1:100) and rabbit anti-pT308 (1:200) primary antibodies, for 16 hours at 4° C. The first slide was further immunolabeled with ORG488-conjugated anti-mouse Fab fragment secondary antibody (20 μg/ml). The second slide was immunolabeled with ORG488-conjugated anti-mouse Fab fragment (20 μg/ml) and HRP-conjugated anti-rabbit Fab fragment secondary antibody (10 μg/ml), which was detected by using Alexa-594-TSA assay. […]\nThe donor lifetimes of ORG488 were determined from at least 10 ROIs of the tumours, each performed in triplicate unless otherwise indicated. The FRET efficiency was calculated as described above (FIG. 4(a)-(c))."}
{"molecule": "B1", "values": [{"measurement": "FRET efficiency (Ef) of panAkt+pT308 in CIP-treated tumour samples", "setting": "CIP 10 units/slide 30 min, untreated Ef=6.0", "value": 1.5, "unit": "%"}, {"measurement": "change of FRET efficiency of the panAkt+pT308 signal in the CIP-treated condition", "setting": "FIG. 4(c), p<0.0001", "value": "reduction"}]}
